Results reported in patent US20260242735A1 (UNIVERSIT T BASEL, published 2026).
One block for each binder: values may come before it.

Tests used:
human CD33 H45A = human CD33 H45A (human, UniProt P20138 18-364); assay: flow cytometry, alanine scan
human CD33 N20A = human CD33 N20A (human, UniProt P20138 18-364); assay: flow cytometry, alanine scan
human CD33 P40A = human CD33 P40A (human, UniProt P20138 18-364); assay: flow cytometry, alanine scan
human CD33 V29A = human CD33 V29A (human, UniProt P20138 18-364); assay: flow cytometry, alanine scan
human CD33 V29A, sequence (P20138 18-364 V29A limits assumed): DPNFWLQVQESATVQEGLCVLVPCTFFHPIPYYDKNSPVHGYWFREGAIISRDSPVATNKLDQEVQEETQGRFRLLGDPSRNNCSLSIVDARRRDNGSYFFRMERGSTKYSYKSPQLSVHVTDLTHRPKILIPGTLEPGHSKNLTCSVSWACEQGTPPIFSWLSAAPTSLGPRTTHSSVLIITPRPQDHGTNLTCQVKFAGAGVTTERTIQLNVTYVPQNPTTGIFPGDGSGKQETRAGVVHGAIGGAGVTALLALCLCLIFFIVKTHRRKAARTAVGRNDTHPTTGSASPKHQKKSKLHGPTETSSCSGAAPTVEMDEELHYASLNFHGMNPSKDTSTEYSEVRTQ

human CD33 V25A = human CD33 V25A (human, UniProt P20138 18-364); assay: flow cytometry, alanine scan
human CD33 V25A, sequence (P20138 18-364 V25A limits assumed): as the sequence (P20138 18-364 V29A limits assumed) above, with V8A, A12V counted along it

human CD33 Q26A = human CD33 Q26A (human, UniProt P20138 18-364); assay: flow cytometry, alanine scan
human CD33 Q26A, sequence (P20138 18-364 Q26A limits assumed): as the sequence (P20138 18-364 V29A limits assumed) above, with Q9A, A12V counted along it

human CD33 S28A = human CD33 S28A (human, UniProt P20138 18-364); assay: flow cytometry, alanine scan
human CD33 S28A, sequence (P20138 18-364 S28A limits assumed): as the sequence (P20138 18-364 V29A limits assumed) above, with S11A, A12V counted along it

human CD33 E33A = human CD33 E33A (human, UniProt P20138 18-364); assay: flow cytometry, alanine scan
human CD33 E33A, sequence (P20138 18-364 E33A limits assumed): as the sequence (P20138 18-364 V29A limits assumed) above, with A12V, E16A counted along it

human CD33 T30A = human CD33 T30A (human, UniProt P20138 18-364); assay: flow cytometry, alanine scan
human CD33 T30A, sequence (P20138 18-364 T30A limits assumed): as the sequence (P20138 18-364 V29A limits assumed) above, with A12V, T13A counted along it

human CD33 W22A = human CD33 W22A (human, UniProt P20138 18-364); assay: flow cytometry, alanine scan
human CD33 W22A, sequence (P20138 18-364 W22A limits assumed): as the sequence (P20138 18-364 V29A limits assumed) above, with W5A, A12V counted along it

human CD33 E27A = human CD33 E27A (human, UniProt P20138 18-364); assay: flow cytometry, alanine scan
human CD33 E27A, sequence (P20138 18-364 E27A limits assumed): as the sequence (P20138 18-364 V29A limits assumed) above, with E10A, A12V counted along it

human CD33 F43A = human CD33 F43A (human, UniProt P20138 18-364); assay: flow cytometry, alanine scan
human CD33 F43A, sequence (P20138 18-364 F43A limits assumed): as the sequence (P20138 18-364 V29A limits assumed) above, with A12V, F26A counted along it

human CD33 C41A = human CD33 C41A (human, UniProt P20138 18-364); assay: flow cytometry, alanine scan
human CD33 C41A, sequence (P20138 18-364 C41A limits assumed): as the sequence (P20138 18-364 V29A limits assumed) above, with A12V, C24A counted along it

human CD33 P19A = human CD33 P19A (human, UniProt P20138 18-364); assay: flow cytometry, alanine scan
human CD33 P19A, sequence (P20138 18-364 P19A limits assumed): as the sequence (P20138 18-364 V29A limits assumed) above, with P2A, A12V counted along it

human CD33 F21A = human CD33 F21A (human, UniProt P20138 18-364); assay: flow cytometry, alanine scan
human CD33 F21A, sequence (P20138 18-364 F21A limits assumed): as the sequence (P20138 18-364 V29A limits assumed) above, with F4A, A12V counted along it

human CD33 T42A = human CD33 T42A (human, UniProt P20138 18-364); assay: flow cytometry, alanine scan
human CD33 T42A, sequence (P20138 18-364 T42A limits assumed): as the sequence (P20138 18-364 V29A limits assumed) above, with A12V, T25A counted along it

human CD33 C36A = human CD33 C36A (human, UniProt P20138 18-364); assay: flow cytometry, alanine scan
human CD33 C36A, sequence (P20138 18-364 C36A limits assumed): as the sequence (P20138 18-364 V29A limits assumed) above, with A12V, C19A counted along it

human CD33 G34A = human CD33 G34A (human, UniProt P20138 18-364); assay: flow cytometry, alanine scan
human CD33 G34A, sequence (P20138 18-364 G34A limits assumed): as the sequence (P20138 18-364 V29A limits assumed) above, with A12V, G17A counted along it

human CD33 D18A = human CD33 D18A (human, UniProt P20138 19-364); assay: flow cytometry, alanine scan
human CD33 D18A, sequence (P20138 18-364 D18A limits assumed): as the sequence (P20138 18-364 V29A limits assumed) above, with D1A, A12V counted along it

human CD33 V31A = human CD33 V31A (human, UniProt P20138 18-364); assay: flow cytometry, alanine scan
human CD33 V31A, sequence (P20138 18-364 V31A limits assumed): as the sequence (P20138 18-364 V29A limits assumed) above, with A12V, V14A counted along it

human CD33 L23A = human CD33 L23A (human, UniProt P20138 18-364); assay: flow cytometry, alanine scan
human CD33 L23A, sequence (P20138 18-364 L23A limits assumed): as the sequence (P20138 18-364 V29A limits assumed) above, with L6A, A12V counted along it

human CD33 F44A = human CD33 F44A (human, UniProt P20138 18-364); assay: flow cytometry, alanine scan
human CD33 F44A, sequence (P20138 18-364 F44A limits assumed): as the sequence (P20138 18-364 V29A limits assumed) above, with A12V, F27A counted along it

human CD33 V37A = human CD33 V37A (human, UniProt P20138 18-364); assay: flow cytometry, alanine scan
human CD33 V37A, sequence (P20138 18-364 V37A limits assumed): as the sequence (P20138 18-364 V29A limits assumed) above, with A12V, V20A counted along it

human CD33 V39A = human CD33 V39A (human, UniProt P20138 18-364); assay: flow cytometry, alanine scan
human CD33 V39A, sequence (P20138 18-364 V39A limits assumed): as the sequence (P20138 18-364 V29A limits assumed) above, with A12V, V22A counted along it

human CD33 L38A = human CD33 L38A (human, UniProt P20138 18-364); assay: flow cytometry, alanine scan
human CD33 L38A, sequence (P20138 18-364 L38A limits assumed): as the sequence (P20138 18-364 V29A limits assumed) above, with A12V, L21A counted along it

human CD33 L35A = human CD33 L35A (human, UniProt P20138 18-364); assay: flow cytometry, alanine scan
human CD33 L35A, sequence (P20138 18-364 L35A limits assumed): as the sequence (P20138 18-364 V29A limits assumed) above, with A12V, L18A counted along it

human CD33 Q32A = human CD33 Q32A (human, UniProt P20138 18-364); assay: flow cytometry, alanine scan
human CD33 Q32A, sequence (P20138 18-364 Q32A limits assumed): as the sequence (P20138 18-364 V29A limits assumed) above, with A12V, Q15A counted along it

human CD33 Q24A = human CD33 Q24A (human, UniProt P20138 18-364); assay: flow cytometry, alanine scan
human CD33 Q24A, sequence (P20138 18-364 Q24A limits assumed): as the sequence (P20138 18-364 V29A limits assumed) above, with Q7A, A12V counted along it

human wild-type CD33 [1] = molecular target: T1, human wild-type CD33 (human, UniProt P20138 18-364); assay: flow cytometry, IgG at 0.25 ug/ml on HEK293-T cells expressing CD33 against vector alone
T1 construct: also called SIGLEC3; P67
T1 sequence (P20138 18-364 limits assumed): as the sequence (P20138 18-364 V29A limits assumed) above, with A12V counted along it
Method: Binding of the antibodies to the transfected cells and the optimal assay conditions were evaluated in 384-well format. Detection of cellular expression was measured via high-throughput flow cytometry. Serial dilutions of each antibody were tested for immunoreactivity against cells expressing CD33 or vector alone. The optimal screening concentration for each antibody was determined based on the raw signal values and signal-to-background calculations. Each point represents the mean of four replicates.

human wild-type CD33 [2] = molecular target: T1, human wild-type CD33; assay: flow cytometry, Fab at 0.25 ug/ml on HEK293-T cells expressing CD33 against vector alone
Method: Serial dilutions of each Fab were tested for immunoreactivity against cells expressing wild-type CD33 or vector alone. The optimal screening concentration for the Fabs was determined based on the raw signal values and signal-to-background calculations. Each point represents the mean of four replicates.

human CD33 P40A, sequence (P20138 18-364 P40A limits assumed): as the sequence (P20138 18-364 V29A limits assumed) above, with A12V, P23A counted along it
human CD33 N20A, sequence (P20138 18-364 N20A limits assumed): as the sequence (P20138 18-364 V29A limits assumed) above, with N3A, A12V counted along it
human CD33 H45A, sequence (P20138 18-364 H45A limits assumed): as the sequence (P20138 18-364 V29A limits assumed) above, with A12V, H28A counted along it

Mean % WT Binding (human CD33 H45A): 58.4 % of WT
Mean % WT Binding (human CD33 N20A): 94.4 % of WT
Mean % WT Binding (human CD33 P40A): 117 % of WT
Mean % WT Binding (human CD33 V29A): 122 % of WT
Mean % WT Binding (human CD33 V25A): 143 % of WT
Mean % WT Binding (human CD33 Q26A): 104 % of WT
Mean % WT Binding (human CD33 S28A): 105 % of WT
Mean % WT Binding (human CD33 E33A): 106 % of WT
Mean % WT Binding (human CD33 T30A): 118 % of WT
Mean % WT Binding (human CD33 W22A): 114 % of WT
Mean % WT Binding (human CD33 E27A): 186 % of WT
Mean % WT Binding (human CD33 F43A): 87.8 % of WT
Mean % WT Binding (human CD33 C41A): 30.9 % of WT
Mean % WT Binding (human CD33 P19A): 114 % of WT
Mean % WT Binding (human CD33 F21A): 197 % of WT
Mean % WT Binding (human CD33 T42A): 115 % of WT
Mean % WT Binding (human CD33 C36A): 137 % of WT
Mean % WT Binding (human CD33 G34A): 101 % of WT
Mean % WT Binding (human CD33 D18A): 139 % of WT
Mean % WT Binding (human CD33 V31A): 112 % of WT
Mean % WT Binding (human CD33 L23A): 118 % of WT
Mean % WT Binding (human CD33 F44A): 122 % of WT
Mean % WT Binding (human CD33 V37A): 148 % of WT
Mean % WT Binding (human CD33 V39A): 116 % of WT
Mean % WT Binding (human CD33 L38A): 180 % of WT
Mean % WT Binding (human CD33 L35A): 112 % of WT
Mean % WT Binding (human CD33 Q32A): 148 % of WT
Mean % WT Binding (human CD33 Q24A): 115 % of WT
B1: Refmab #5 (antibody, V domains shown)
VH: QVQLVQSGAEVKKPGASVKVSCKASGYTFTNYDINWVRQAPGQGLEWIGWIYPGDGSTKYNEKFKAKATLTADTSTSTAYMELRSLRSDDTAVYYCASGYEDAMDYWGQGTTVTVSS
VL: DIQMTQSPSSLSASVGDRVTINCKASQDINSYLSWFQQKPGKAPKTLIYRANRLVDGVPSRFSGSGSGQDYTLTISSLQPEDFATYYCLQYDEFPLTFGGGTKVEIK
notes: The alanine scan used IgG or Fab

Signal:Background (human wild-type CD33 [1]): 37 signal:background ratio
B2: Refmab #5 (antibody, human IgG1, V domains shown)
VH: QVQLVQSGAEVKKPGASVKVSCKASGYTFTNYDINWVRQAPGQGLEWIGWIYPGDGSTKYNEKFKAKATLTADTSTSTAYMELRSLRSDDTAVYYCASGYEDAMDYWGQGTTVTVSS
VL: DIQMTQSPSSLSASVGDRVTINCKASQDINSYLSWFQQKPGKAPKTLIYRANRLVDGVPSRFSGSGSGQDYTLTISSLQPEDFATYYCLQYDEFPLTFGGGTKVEIK
notes: Full-length MAb format, human IgG1 Fc silent (PG-LALA)

Signal:Background (human wild-type CD33 [2]): 33 signal:background ratio
B3: Refmab #1 Fab fragment (Fab, V domains shown)
VH: EVQLVQSGAEVKKPGSSVKVSCKASGYTITDSNIHWVRQAPGQSLEWIGYIYPYNGGTDYNQKFKNRATLTVDNPTNTAYMELSSLRSEDTAFYYCVNGNPWLAYWGQGTLVTVSS
VL: DIQLTQSPSTLSASVGDRVTITCRASESLDNYGIRFLTWFQQKPGKAPKLLMYAASNQGSGVPSRFSGSGSGTEFTLTISSLQPDDFATYYCQQTKEVPWSFGQGTKVEVK
